# Measured values taken from the supplement of paper PMC10065799, “High-throughput profiling of sequence recognition by tyrosine kinases and SH2 domains using bacterial peptide display” (eLife, 2023).
# Target: Fyn (UniProt P06241)
# Test: phosphorylation enrichment, bacterial display (enrichment ratio); higher = better substrate or ligand; peptides without Tyr show the background
# 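Further: 11-residue human phosphosite peptides and single-mutation variants displayed on the E. coli surface, counted by deep sequencing, each peptide's frequency after selection divided by its frequency in the unselected input library; frequency after pTyr selection over input frequency; kinase dosed for 20-30% of maximal phosphorylation in three min.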
# Sequence of Fyn (P06241 whole entry, looked up): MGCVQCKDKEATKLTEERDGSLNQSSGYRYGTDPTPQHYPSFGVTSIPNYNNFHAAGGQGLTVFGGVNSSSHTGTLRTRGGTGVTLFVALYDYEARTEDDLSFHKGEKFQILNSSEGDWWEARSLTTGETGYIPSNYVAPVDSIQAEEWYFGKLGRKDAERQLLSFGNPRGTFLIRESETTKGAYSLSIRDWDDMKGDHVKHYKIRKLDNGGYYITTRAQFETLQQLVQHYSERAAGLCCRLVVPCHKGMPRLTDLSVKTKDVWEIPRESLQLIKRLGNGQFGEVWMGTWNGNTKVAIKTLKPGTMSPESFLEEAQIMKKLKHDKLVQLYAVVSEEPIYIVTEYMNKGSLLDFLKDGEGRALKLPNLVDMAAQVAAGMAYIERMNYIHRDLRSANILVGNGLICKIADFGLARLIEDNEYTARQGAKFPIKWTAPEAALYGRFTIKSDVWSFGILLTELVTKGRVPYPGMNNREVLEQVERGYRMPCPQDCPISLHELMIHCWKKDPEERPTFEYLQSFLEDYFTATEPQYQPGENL
row,Sequence,phosphorylation enrichment
1,GLCSFYETSKM [MAGED2_Y449_R446C_YF],0.652
2,DLFRLYVCVKE [ARID1B_Y1091],0.396
3,FSSLGYPPPEG [ZSWIM4_Y87_YF],0.443
4,WVYNHYRCIIW [BRCA2_Y2624_W2626C],0.515
5,REQREYLDQLN [CCDC88B_Y1277],0.624
6,MAALSYVSEIG [BPIFB2_Y36_K31M],0.432
7,TRDVNYGWIIR [MT-CYB_Y75],0.475
8,GFDHSYFFIAT [ESD_Y262_YF],0.525
9,PQGVRYIYTID [DCX_Y103],4.01
10,HSLRDYKEALM [ADA2_Y337_H335R],0.388
11,GDFFRYLAEVA [YWHAG_Y133_YF],0.432
12,IFRASYVPFAA [RBM47_Y541_G538R_YF],0.463
13,ITRDIYETDFF [INSR_Y1185_M1180I_YF],1.46
14,ITLPIYTKGSE [ANK2_Y1455_E1458G],0.581
15,FLAVGYHKTHI [IDS_Y225_P228T],0.477
16,RVVVPYEPPEV [TP53_Y220_S215R],0.554
17,ARSMEYLAEQK [MST1R_Y1198],0.585

row,Sequence,phosphorylation enrichment
1,RRFSSYSQMEN [PKP1_Y120],1.48
2,EKKDIYKAGEQ [CFH_Y1008_V1007I],0.341
3,DNACQYMLTDR [MYH7_Y164_Y162C],0.571
4,SGGLDYGMVGG [TNRC6B_Y1382_M1380L],2.21
5,LNYNEYFRDLN [HPRT1_Y198_D194N],0.996
6,QRKRAYVEIEF [MAK16_Y282_YF],0.655
7,KRLWDYGMSSS [F8_Y1728_E1723K],0.341
8,VAFLFYKSIGP [ADGRL4_Y302_V300L_YF],0.5
9,TQNGVYSAANY [DDX5_Y535],7.45
10,FFLGAYDRFLP [SLC22A5_Y486_V481F_YF],1.99
11,RLGNQHVNVMN [SLC3A1_Y461_Y461H],0.627
12,INMKKYCKKDF [NTN1_Y490_YF],0.438
13,MSRYIYSTDYY [NTRK1_Y676_D674Y],6.8
14,KLPFLYDDPFS [GPX2_Y127_P126L_YF],0.672
15,KLPFPYDDPFS [GPX2_Y127_YF],0.545
16,SQSPHYFRSGR [GPATCH8_Y1038],0.476

# System: Fer (mouse)
# Test: as above
row,Sequence,phosphorylation enrichment
1,GLCSFYETSKM [MAGED2_Y449_R446C_YF],1.95
2,DLFRLYVCVKE [ARID1B_Y1091],0.548
3,FSSLGYPPPEG [ZSWIM4_Y87_YF],0.396
4,WVYNHYRCIIW [BRCA2_Y2624_W2626C],0.569
5,REQREYLDQLN [CCDC88B_Y1277],0.532
6,MAALSYVSEIG [BPIFB2_Y36_K31M],0.394
7,TRDVNYGWIIR [MT-CYB_Y75],0.443
8,GFDHSYFFIAT [ESD_Y262_YF],0.589
9,PQGVRYIYTID [DCX_Y103],1
10,HSLRDYKEALM [ADA2_Y337_H335R],0.44
11,GDFFRYLAEVA [YWHAG_Y133_YF],0.486
12,IFRASYVPFAA [RBM47_Y541_G538R_YF],0.388
13,ITRDIYETDFF [INSR_Y1185_M1180I_YF],0.983
14,ITLPIYTKGSE [ANK2_Y1455_E1458G],0.451
15,FLAVGYHKTHI [IDS_Y225_P228T],0.447
16,RVVVPYEPPEV [TP53_Y220_S215R],0.409
17,ARSMEYLAEQK [MST1R_Y1198],0.403

row,Sequence,phosphorylation enrichment
1,RRFSSYSQMEN [PKP1_Y120],0.833
2,EKKDIYKAGEQ [CFH_Y1008_V1007I],0.362
3,DNACQYMLTDR [MYH7_Y164_Y162C],0.523
4,SGGLDYGMVGG [TNRC6B_Y1382_M1380L],0.476
5,LNYNEYFRDLN [HPRT1_Y198_D194N],0.878
6,QRKRAYVEIEF [MAK16_Y282_YF],0.48
7,KRLWDYGMSSS [F8_Y1728_E1723K],0.339
8,VAFLFYKSIGP [ADGRL4_Y302_V300L_YF],0.55
9,TQNGVYSAANY [DDX5_Y535],1.87
10,FFLGAYDRFLP [SLC22A5_Y486_V481F_YF],1.04
11,RLGNQHVNVMN [SLC3A1_Y461_Y461H],0.504
12,INMKKYCKKDF [NTN1_Y490_YF],0.572
13,MSRYIYSTDYY [NTRK1_Y676_D674Y],1.89
14,KLPFLYDDPFS [GPX2_Y127_P126L_YF],1.6
15,KLPFPYDDPFS [GPX2_Y127_YF],0.772
16,SQSPHYFRSGR [GPATCH8_Y1038],0.427

# Target: EPHB1 (UniProt P54762)
# Test: as above
# Sequence of EPHB1 (P54762 whole entry, looked up): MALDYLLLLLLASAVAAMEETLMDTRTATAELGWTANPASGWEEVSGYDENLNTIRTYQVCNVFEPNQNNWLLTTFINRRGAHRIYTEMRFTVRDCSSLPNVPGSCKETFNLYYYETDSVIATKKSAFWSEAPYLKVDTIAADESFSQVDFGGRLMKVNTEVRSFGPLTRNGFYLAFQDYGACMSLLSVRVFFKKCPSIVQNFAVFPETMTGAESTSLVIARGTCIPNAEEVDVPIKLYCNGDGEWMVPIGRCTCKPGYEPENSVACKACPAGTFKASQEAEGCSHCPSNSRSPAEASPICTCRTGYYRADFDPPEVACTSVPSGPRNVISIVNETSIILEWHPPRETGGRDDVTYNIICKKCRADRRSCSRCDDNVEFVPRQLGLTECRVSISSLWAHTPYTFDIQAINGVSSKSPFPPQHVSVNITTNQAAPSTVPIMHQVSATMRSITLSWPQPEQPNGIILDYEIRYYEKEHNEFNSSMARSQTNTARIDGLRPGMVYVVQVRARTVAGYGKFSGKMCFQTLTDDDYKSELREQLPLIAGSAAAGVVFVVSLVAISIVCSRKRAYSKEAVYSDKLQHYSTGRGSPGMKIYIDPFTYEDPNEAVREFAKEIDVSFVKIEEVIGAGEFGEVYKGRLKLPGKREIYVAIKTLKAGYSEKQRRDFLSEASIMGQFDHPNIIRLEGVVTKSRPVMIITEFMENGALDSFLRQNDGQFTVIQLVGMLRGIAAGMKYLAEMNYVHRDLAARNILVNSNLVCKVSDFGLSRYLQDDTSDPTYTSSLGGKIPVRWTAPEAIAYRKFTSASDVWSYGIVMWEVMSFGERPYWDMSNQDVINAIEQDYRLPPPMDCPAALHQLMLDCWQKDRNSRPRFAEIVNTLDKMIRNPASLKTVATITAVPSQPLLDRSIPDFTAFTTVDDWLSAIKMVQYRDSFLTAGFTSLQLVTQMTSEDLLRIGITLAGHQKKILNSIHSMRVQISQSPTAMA
row,Sequence,phosphorylation enrichment
1,GLCSFYETSKM [MAGED2_Y449_R446C_YF],0.71
2,DLFRLYVCVKE [ARID1B_Y1091],0.697
3,FSSLGYPPPEG [ZSWIM4_Y87_YF],0.418
4,WVYNHYRCIIW [BRCA2_Y2624_W2626C],0.806
5,REQREYLDQLN [CCDC88B_Y1277],0.666
6,MAALSYVSEIG [BPIFB2_Y36_K31M],0.397
7,TRDVNYGWIIR [MT-CYB_Y75],0.542
8,GFDHSYFFIAT [ESD_Y262_YF],0.63
9,PQGVRYIYTID [DCX_Y103],0.943
10,HSLRDYKEALM [ADA2_Y337_H335R],0.775
11,GDFFRYLAEVA [YWHAG_Y133_YF],0.503
12,IFRASYVPFAA [RBM47_Y541_G538R_YF],0.645
13,ITRDIYETDFF [INSR_Y1185_M1180I_YF],0.803
14,ITLPIYTKGSE [ANK2_Y1455_E1458G],0.599
15,FLAVGYHKTHI [IDS_Y225_P228T],0.548
16,RVVVPYEPPEV [TP53_Y220_S215R],0.523
17,ARSMEYLAEQK [MST1R_Y1198],0.488

row,Sequence,phosphorylation enrichment
1,RRFSSYSQMEN [PKP1_Y120],0.984
2,EKKDIYKAGEQ [CFH_Y1008_V1007I],0.353
3,DNACQYMLTDR [MYH7_Y164_Y162C],0.6
4,SGGLDYGMVGG [TNRC6B_Y1382_M1380L],0.527
5,LNYNEYFRDLN [HPRT1_Y198_D194N],1.4
6,QRKRAYVEIEF [MAK16_Y282_YF],0.838
7,KRLWDYGMSSS [F8_Y1728_E1723K],0.429
8,VAFLFYKSIGP [ADGRL4_Y302_V300L_YF],0.689
9,TQNGVYSAANY [DDX5_Y535],1.26
10,FFLGAYDRFLP [SLC22A5_Y486_V481F_YF],0.756
11,RLGNQHVNVMN [SLC3A1_Y461_Y461H],0.694
12,INMKKYCKKDF [NTN1_Y490_YF],0.45
13,MSRYIYSTDYY [NTRK1_Y676_D674Y],8.88
14,KLPFLYDDPFS [GPX2_Y127_P126L_YF],3.99
15,KLPFPYDDPFS [GPX2_Y127_YF],0.587
16,SQSPHYFRSGR [GPATCH8_Y1038],0.56

# System: c-Src
# Test: as above
row,Sequence,phosphorylation enrichment
1,GLCSFYETSKM [MAGED2_Y449_R446C_YF],0.83
2,DLFRLYVCVKE [ARID1B_Y1091],0.431
3,FSSLGYPPPEG [ZSWIM4_Y87_YF],0.421
4,WVYNHYRCIIW [BRCA2_Y2624_W2626C],0.481
5,REQREYLDQLN [CCDC88B_Y1277],0.521
6,MAALSYVSEIG [BPIFB2_Y36_K31M],0.431
7,TRDVNYGWIIR [MT-CYB_Y75],0.423
8,GFDHSYFFIAT [ESD_Y262_YF],0.558
9,PQGVRYIYTID [DCX_Y103],4.09
10,HSLRDYKEALM [ADA2_Y337_H335R],0.56
11,GDFFRYLAEVA [YWHAG_Y133_YF],0.447
12,IFRASYVPFAA [RBM47_Y541_G538R_YF],0.384
13,ITRDIYETDFF [INSR_Y1185_M1180I_YF],1.75
14,ITLPIYTKGSE [ANK2_Y1455_E1458G],0.529
15,FLAVGYHKTHI [IDS_Y225_P228T],0.4
16,RVVVPYEPPEV [TP53_Y220_S215R],0.36
17,ARSMEYLAEQK [MST1R_Y1198],0.474

row,Sequence,phosphorylation enrichment
1,RRFSSYSQMEN [PKP1_Y120],0.614
2,EKKDIYKAGEQ [CFH_Y1008_V1007I],0.431
3,DNACQYMLTDR [MYH7_Y164_Y162C],1.24
4,SGGLDYGMVGG [TNRC6B_Y1382_M1380L],1.88
5,LNYNEYFRDLN [HPRT1_Y198_D194N],0.518
6,QRKRAYVEIEF [MAK16_Y282_YF],0.63
7,KRLWDYGMSSS [F8_Y1728_E1723K],0.394
8,VAFLFYKSIGP [ADGRL4_Y302_V300L_YF],0.558
9,TQNGVYSAANY [DDX5_Y535],6.11
10,FFLGAYDRFLP [SLC22A5_Y486_V481F_YF],3.75
11,RLGNQHVNVMN [SLC3A1_Y461_Y461H],0.717
12,INMKKYCKKDF [NTN1_Y490_YF],0.491
13,MSRYIYSTDYY [NTRK1_Y676_D674Y],7.15
14,KLPFLYDDPFS [GPX2_Y127_P126L_YF],0.641
15,KLPFPYDDPFS [GPX2_Y127_YF],0.831
16,SQSPHYFRSGR [GPATCH8_Y1038],0.538
